According to paper PMC9259988, “Heterologous Expression and Evaluation of Novel Plasmodium falciparum Transmission Blocking Vaccine Candidates” (Frontiers in Immunology, 2022):

Biological target: the molecule itself
Assay: non-reducing and reducing SDS-PAGE; purified protein run non-reduced and reduced (10 mM dithiothreitol) on a 4-20% Bis-Tris gel, Coomassie-type staining

B1: Pf3D7_1143700 fragment 1-100 expressed in Drosophila melanogaster S2 cells (TBC1^DM) (domain or fragment, Plasmodium falciparum 3D7, UniProt Q8IHS8 1-100, looked up)
chain: MKVKIGSFENFLERLNNIKEEDIIINDENTEEMFSSFLITFYKENEGRYTIQEQEYINNLLNILINKIRDNKNGRNFFSNLLCIHFKSITPYFINVKLKD
notes: Conserved Plasmodium protein, unknown function, PF3D7_1143700, Plasmodium falciparum 3D7 genome (PlasmoDB), residues 1-100; codon-optimised synthetic gene; secreted; the dimer is held by a disulphide bond
Q: For B1, which “stoichiometry N” value is on record?
A: 2
